According to patent publication US7939064B2 (priority 2006, dated 2011):
“Also recorded” adds a separate entry of the source.

Columns and labels:
TNF-a = details: rat, in vivo
[1] = test system: gene expression in ischemic brain; assay: Microarray gene expression analysis (RAE-230A GeneChips) of MCAo and MCAo+NsPLA2 brains; type: in vivo, rat
From the text: Cerebral ischemia is a powerful stimulus for the de novo expression of many gene systems and identification of genes differentially expressed in the ischemic and non-ischemic brain can help illuminate pathophysiology and provide therapeutic targets in ischemia. Analysis of gene expression can also aid in elucidating the role of various pathways or specific genes in the mechanism of action of neuroprotective agents. Consequently, the power of high-density oligonucleotide arrays was harnessed to generate global expression profiles of non-ischemic, ischemic and NsPLA2-treated brains. RNA isolated from the brains of sham-operated rats (sham-op; n=4), rats subjected to 60 min of MCAo (MCAo; n=4) and rats subjected to 60 min of MCAo but treated with 30 μg/200 g body weight NsPLA2 immediately post-occlusion (MCAo+NsPLA2; n=4) was pooled before microarray probe preparation and hybridization to minimize inter-individual variation. Expression analysis was carried out using GeneChips from the RAE-230A Array set, with each chip representing ˜15,900 genes and expressed sequence tags (ESTs). Genes whose expression changed by 1.7-fold or greater in at least one pairwise comparison (between sham-op and MCAo or between MCAo and MCAo+NsPLA2) were deemed significant.
In an attempt to understand the mechanisms by which NsPLA2 may confer neuroprotection, the gene expression profiles of MCAo and MCAo+NsPLA2 were compared. […] They are listed in Table 1 and include genes involved in cell growth and maintenance (retinol-binding protein, regulator of G-protein signalling 2, DNA topoisomerase, X transporter protein 3, hemoglobin &chain complex, nucleosome assembly protein 1-like, cyclin-dependent kinase inhibitor 1A and chloride intracellular channel 4), development (tropomyosin 4 and neurogenic differentiation 1), lipid metabolism (tissue inhibitor of metalloproteinase 1 and sulfotransferase family 1A), Ca^2+-binding (calpactin 1 heavy chain, calgranulin A, protein disulfide isomeraserelated protein and S-100 related protein), maintenance of cytoskeletal structure (tropomyosin 1 and moesin), defense response (CD44 antigen), regulation of blood pressure (angiotensinogen), cell-cell signaling (thyrotropin releasing hormone), antioxidant activity (glutathione-S-transferase), proteolysis (MMP-9), cell adhesion (l-gicerin) and transcriptional regulation (POU domain).

[2] = test system: neurons in striatum and cortex of ischemic brains; assay: Haematoxylin and eosin histology of ischemic brain sections; type: in vivo, rat; details: NsPLA2 at 0 min post-occlusion
From the text: The ability of NsPLA2 to protect neurons from cell death was investigated. Paraffin-embedded rat brains were sectioned and stained with haematoxylin and eosin. […] Neurons appeared shrunken and nuclei were dysmorphic and pyknotic.

[3] = test system: neurons in striatum and cortex of ischemic brains; details: rat, in vivo
[4] = test system: transient cerebral focal ischemia (left middle cerebral artery occlusion); details: rat, in vivo
[5] = test system: Bcl-2, Bcl-XL and Bax genes; assay: Real-time PCR of anti-/pro-apoptotic genes in OGD hippocampal tissues; details: OGD and NsPLA2 treatment
Experimental: (A) Organotypic hippocampal cultures were subjected to OGD (oxygen-glucose deprivation) for 90 mins and treated with NsPLA2. […] Total RNA was isolated from the hippocampal tissues and subjected to reverse transcription and PCR. The data was derived from 6 independent PCR (n=6).
Thus, we carried out experiments using the organotypic hippocampal cultures, in conditions where oxygen is eliminated by using the 95% N2 and 5% CO2 and glucose was deprived in cultures by using culture media without glucose.

[6] = test system: gene expression in ischemic brain; assay: Real-time PCR quantitation of nine genes in MCAo and NsPLA2-treated brains; type: in vivo, rat; details: NsPLA2 treatment relative to MCAo brain
From the text: The expression of nine genes that may have important roles in mediating the neuroprotective action of NsPLA2 was quantitated by real-time PCR (FIG. 8). Specific primers were used for PCR amplification. The relative expression of each gene in the heart was obtained after normalizing against an internal control (18S ribosomal RNA) and a calibrator, in this case, the sham-operated control or MCAo brain, FIGS. 8A and B respectively, relative gene expression=1).

[7] = LD50 and signs of toxicity of NsPLA2
[8] = NsPLA2-treated vs saline-treated MCAo brain

B1: NsPLA2 (protein)
chain: NLYQFKNMVQCTVPNRSWWHFADYGCYCGRGGSGTPVDDLDRCCQIHDNCYNEAEKISRCWPYFKTYSYECSQGTLTCKGGNNACAAAVCDCDRLAAICFAGAPYNDNNYNIDLKARCQ
modifications: Naja sputatrix
Question: For B1, which systemic inflammation (TNF-a) is on record?
Answer: did not induce systemic inflammation

Question: What about the “fold change, Adipose differentiation-related protein (1390383_at)” value [1, 8] of the same molecule?
Answer: −1.75 fold

Question: And the “fold change, CD9 antigen (1371499_at)” value [1, 8]?
Answer: −2.6 fold

Question: What about the “fold change, CD44 antigen (1387952_a_at)” value [1, 8] of the same molecule?
Answer: −3.7 fold

Question: And the “fold change, Calcium/calmodulin-dependent protein kinase (CaM kinase) II gamma (1369993_at)” value [1, 8]?
Answer: 1.74 fold

Question: And the “fold change, Chloride intracellular channel 4 (1387420_at)” value [1, 8]?
Answer: −1.9 fold

Question: What about the “fold change, DNA topoisomerase I (1369421_at)” value [1, 8] of the same molecule?
Answer: −4.6 fold

Question: What about the “fold change, I-gicerin (1369793_a_at)” value [1, 8] of the same molecule?
Answer: −1.75 fold

Question: What about the “fold change, NOV protein (1376734_at)” value [1, 8] of the same molecule?
Answer: 1.87 fold

Question: What about the “fold change, ProSAPiP1 protein (1373057_at)” value [1, 8] of the same molecule?
Answer: 1.74 fold

Question: And the “fold change, S100 calcium-binding protein A8 (calgranulin A) (1368494_at)” value [1, 8]?
Answer: −1.75 fold

Question: What about the “fold change, S-100 related protein (1386890_at)” value [1, 8] of the same molecule?
Answer: −1.9 fold

Question: What about the “fold change, Similar to endothelial monocyte-activating polypeptide (1375170_at)” value [1, 8] of the same molecule?
Answer: −1.9 fold

Question: And the “fold change, Similar to plexinB1 (1374444_at)” value [1, 8]?
Answer: 2 fold

Question: What about the “fold change, Similar to tropomodulin 3 (1372500_at)” value [1, 8] of the same molecule?
Answer: −1.75 fold

Question: What about the “fold change, X transporter protein 3 (1369705_at)” value [1, 8] of the same molecule?
Answer: −1.75 fold

Question: What about the “fold change, aldose reductase-like protein (1370902_at)” value [1, 8] of the same molecule?
Answer: −2.6 fold

Question: And the “fold change, angiotensinogen (1387811_at)” value [1, 8]?
Answer: 1.87 fold

Question: And the “fold change, calpactin I heavy chain (1367584_at)” value [1, 8]?
Answer: −1.75 fold

Question: What about the “fold change, cyclin-dependent kinase inhibitor 1A (1387391_at)” value [1, 8] of the same molecule?
Answer: −3 fold

Question: And the “fold change, fibulin 2 (1389533_at)” value [1, 8]?
Answer: −1.75 fold

Question: What about the “fold change, gap junction protein, beta 6 (connexin 30) (1368577_at)” value [1, 8] of the same molecule?
Answer: 1.87 fold

Question: What about the “fold change, glutathione S-transferase, alpha 1 (1367774_at)” value [1, 8] of the same molecule?
Answer: 2 fold

Question: And the “fold change, hemoglobin beta chain complex (1371102_x_at)” value [1, 8]?
Answer: −1.75 fold

Question: What about the “fold change, homer, neuronal immediate early gene, 1 (1370997_at)” value [1, 8] of the same molecule?
Answer: −2.44 fold

Question: And the “fold change, matrix metalloproteinase 9 (1369166_at)” value [1, 8]?
Answer: −2 fold

Question: What about the “fold change, microtubule-associated protein, RP/EB family, member 1 (1370792_at)” value [1, 8] of the same molecule?
Answer: −4.3 fold

Question: What about the “fold change, moesin (1368948_at)” value [1, 8] of the same molecule?
Answer: −2.3 fold

Question: What about the “fold change, neurogenic differentiation 1 (1387288_at)” value [1, 8] of the same molecule?
Answer: 1.74 fold

Question: And the “fold change, nucleosome assembly protein 1-like 1 (1373473_a_at)” value [1, 8]?
Answer: −2.3 fold

Question: And the “fold change, ornithine decarboxylase antizyme inhibitor (1370575_a_at)” value [1, 8]?
Answer: −1.9 fold

Question: And the “fold change, protein disulfide isomerase related protein (calcium-binding protein) (1370007_at)” value [1, 8]?
Answer: −2 fold

Question: And the “fold change, regulator of G-protein signaling protein 2 (1368144_at)” value [1, 8]?
Answer: −2.44 fold

Question: And the “fold change, retinol binding protein 1 (1367939_at)” value [1, 8]?
Answer: −1.75 fold

Question: What about the “fold change, serine (or cysteine) proteinase inhibitor, clade H, member 1 (1371310_s_at)” value [1, 8] of the same molecule?
Answer: −1.9 fold

Question: What about the “fold change, sulfotransferase family 1A, phenol-preferring, member 1 (1370019_at)” value [1, 8] of the same molecule?
Answer: 1.87 fold

Question: What about the “fold change, syndecan 1 (1367849_at)” value [1, 8] of the same molecule?
Answer: −1.9 fold

Question: What about the “fold change, thyrotropin releasing hormone (1368912_at)” value [1, 8] of the same molecule?
Answer: −3.5 fold

Question: And the “fold change, tissue inhibitor of metalloproteinase 1 (1367712_at)” value [1, 8]?
Answer: −2 fold

Question: What about the “fold change, tropomyosin 1, alpha (1370288_a_at)” value [1, 8] of the same molecule?
Answer: −2.44 fold

Question: And the “fold change, tropomyosin 4 (1368838_at)” value [1, 8]?
Answer: −2.1 fold

Question: And the “fold change, tumor rejection antigen gp96 (1388331_at)” value [1, 8]?
Answer: −2.1 fold

Question: And the “fold change, glutathione S-transferase, alpha 1 (1367774_at)” value ([1]; NsPLA2-treated vs saline-treated MCAo brain, listed as PLA2)?
Answer: +2.0 fold

Question: What about the “decrease in expression of thyrotropin releasing hormone” value ([1]; after PLA2 treatment) of the same molecule?
Answer: 3.5 fold

Question: What about the “ischemic damage, cellular morphology (haematoxylin and eosin)” value [2] of the same molecule?
Answer: significantly reduced ischemic damage

Question: What about the “degree of apoptosis (TUNEL)” value [3] of the same molecule?
Answer: greatly reduced

Question: What about the “brain infarction compared to saline-treated control” value [4] of the same molecule?
Answer: no effect

Question: What about the “infarct size, TTC staining of serial brain sections” value [4] of the same molecule?
Answer: significant reduction in infarct size; also recorded: reduced the infarct size but to a lesser extent

Question: What about the “reduction of focal ischemia / infarct size (summary statement)” value [4] of the same molecule?
Answer: 80%

Question: What about the “Bax gene expression (real-time PCR)” value [5] of the same molecule?
Answer: down-regulated

Question: What about the “Bcl-2 gene expression (real-time PCR)” value [5] of the same molecule?
Answer: up-regulated

Question: What about the “Bcl-XL gene expression (real-time PCR)” value [5] of the same molecule?
Answer: up-regulated

Question: What about the “expression of glutathione-S-transferase, CAM kinase II and angiotensinogen (real-time PCR)” value [6] of the same molecule?
Answer: increased

Question: What about the “expression of thyrotropin releasing hormone, secreted phosphoprotein, moesin, MMP-9, TIMP-1 and calgranulin A (real-time PCR)” value [6] of the same molecule?
Answer: decreased

Question: What about the signs of toxicity ([7]; 30 μg/200 g body weight i.v.) of the same molecule?
Answer: did not induce any signs of toxicity

Question: What about the LD50 ([7]; rat, in vivo) of the same molecule?
Answer: 125 μg/200 g body weight

B2: tPA: tissue plasminogen activator, thrombolytic serine protease converting plasminogen to plasmin (protein, UniProt P00750 36-562, looked up)
Tissue-type plasminogen …: SYQVICRDEKTQMIYQQHQSWLRPVLRSNRVEYCWCNSGRAQCHSVPVKSCSEPRCFNGGTCQQALYFSDFVCQCPEGFAGKCCEIDTRATCYEDQGISYRGTWSTAESGAECTNWNSSALAQKPYSGRRPDAIRLGLGNHNYCRNPDRDSKPWCYVFKAGKYSSEFCSTPACSEGNSDCYFGNGSAYRGTHSLTESGASCLPWNSMILIGKVYTAQNPSAQALGLGKHNYCRNPDGDAKPWCHVLKNRRLTWEYCDVPSCSTCGLRQYSQPQFRIKGGLFADIASHPWQAAIFAKHRRSPGERFLCGGILISSCWILSAAHCFQERFPPHHLTVILGRTYRVVPGEEEQKFEVEKYIVHKEFDDDTYDNDIALLQLKSDSSRCAQESSVVRTVCLPPADLQLPDWTECELSGYGKHEALSPFYSERLKEAHVRLYPSSRCTSQHLLNRTVTDNMLCAGDTRSGGPQANLHDACQGDSGGPLVCLNDGRMTLVGIISWGLGCGQKDVPGVYTKVTNYLDWIRDNMRP
Question: Which results are given for B2?
Answer: effect on infarct volume after transient ischemia [4]: did not significantly reduce infarct volume; neuroprotection compared with the phospholipase A2 [4]: less neuroprotective
